Reference: US20190022211A1 (CELLTRION, published 2019)
Where “and” joins values, the source holds several entries; their conditions need not be identical. Equal entries are not always repeated.

T1: G protein of rabies virus ERA, on virus (rabies virus, UniProt P03524 20-524)
T1 sequence: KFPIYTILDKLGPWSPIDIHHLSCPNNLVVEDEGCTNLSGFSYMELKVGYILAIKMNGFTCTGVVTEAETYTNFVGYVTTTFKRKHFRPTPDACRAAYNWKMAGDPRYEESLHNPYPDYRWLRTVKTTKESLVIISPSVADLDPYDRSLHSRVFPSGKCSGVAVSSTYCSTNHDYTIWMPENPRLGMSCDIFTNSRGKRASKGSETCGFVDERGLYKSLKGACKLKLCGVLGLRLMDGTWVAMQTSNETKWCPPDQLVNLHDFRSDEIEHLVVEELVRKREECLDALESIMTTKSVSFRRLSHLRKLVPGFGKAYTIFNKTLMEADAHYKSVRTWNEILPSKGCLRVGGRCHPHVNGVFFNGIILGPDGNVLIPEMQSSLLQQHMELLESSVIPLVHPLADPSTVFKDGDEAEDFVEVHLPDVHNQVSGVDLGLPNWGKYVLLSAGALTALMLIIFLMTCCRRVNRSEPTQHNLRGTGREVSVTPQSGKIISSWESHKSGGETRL


Legend:
Test in all cases: cell-based or functional assay
[1] = target: G protein of rabies virus TXFX (Gray fox, TX), on virus (rabies virus)
[2] = target: G protein of EBLV 1 A09-3484 (Genotype 5), on virus (EBLV 1, Genotype 5)
[3] = target: G protein of rabies virus Phi 002 (231) (Human/dog, Philippines), on virus (rabies virus)
[4] = target: G protein of rabies virus 3860 CA Bat (Bat, California, USA), on virus (rabies virus)
[5] = target: G protein of rabies virus Mongoose PR (Mongoose, Puerto-Rico), on virus (rabies virus)
[6] = target: G protein of rabies virus CASK (Skunk, California, USA), on virus (rabies virus)
[7] = target: G protein of rabies virus 857r (Raccoon dog, Russia, Far East), on virus (rabies virus)
[8] = target: G protein of rabies virus LC NY (Bat, New York, USA), on virus (rabies virus)
[9] = target: G protein of rabies virus VA 399 (Bat, Virginia, USA), on virus (rabies virus)
[10] = target: G protein of rabies virus TN-269 (Bat, Tennessee, USA), on virus (rabies virus)
[11] = target: G protein of rabies virus Dog Arg (Dog, Argentina), on virus (rabies virus)
[12] = target: G protein of rabies virus phi dog (Human/dog, Philippines), on virus (rabies virus)
[13] = target: G protein of rabies virus TX Coyote (Coyote, Texas, USA), on virus (rabies virus)
[14] = target: G protein of rabies virus NC SK (Skunk, Wisconsin, USA), on virus (rabies virus)
[15] = target: G protein of EBLV 2 A09-3483 (Genotype 6), on virus (EBLV 2, Genotype 6)
[16] = target: G protein of EBLV 1 A09-3485 (Genotype 5), on virus (EBLV 1, Genotype 5)
[17] = target: G protein of rabies virus AL Bat (Bat, California, USA), on virus (rabies virus)
[18] = target: T1, G protein of rabies virus ERA, on virus
[19] = target: G protein of EBLV 2 A03-4659 (Genotype 6), on virus (EBLV 2, Genotype 6)

Binder | neutralizing activity (RFFIT) [1] | neutralizing activity (RFFIT), Titer [1] | neutralizing activity (RFFIT) [2] | neutralizing activity (RFFIT), Titer [2] | neutralizing activity (RFFIT) [3] | neutralizing activity (RFFIT), Titer [3] | neutralizing activity (RFFIT) [4] | neutralizing activity (RFFIT), Titer [4] | neutralizing activity (RFFIT) [5] | neutralizing activity (RFFIT), Titer [5] | neutralizing activity (RFFIT) [6] | neutralizing activity (RFFIT), Titer [6] | neutralizing activity (RFFIT) [7] | neutralizing activity (RFFIT), Titer [7] | neutralizing activity (RFFIT) [8] | neutralizing activity (RFFIT), Titer [8] | neutralizing activity (RFFIT) [9] | neutralizing activity (RFFIT), Titer [9] | neutralizing activity (RFFIT) [10] | neutralizing activity (RFFIT), Titer [10] | other results
antibody 2 (antibody, V domains shown) VH: EVQLVESGAEVKKPGASVKVSCKASGYTFTSYDISWVRQAPGQGLEWMGWISTYKGNTNFAQKFQDRVTLTTDTSTTTAYMELRSLTSDDTAVYYCARAKSHPFYDFWSAYYVPGAFDIWGQGTVVTVSS VL: not shown | 1.85 IU/mL and 9260 IU/mg | 250 | 5.4 IU/mL and 27000 IU/mg | 540 | 2.5 IU/mL and 2500 IU/mg | 250 | 1.5 IU/mL and 7500 IU/mg | 210 | 0.4 IU/mL and 2000 IU/mg | 56 | 0.43 IU/mL and 2160 IU/mg | 54 | 2.7 IU/mL and 2700 IU/mg | 54 | 2.14 IU/mL and 10700 IU/mg | 45 | 2.78 IU/mL and 13900 IU/mg | 50 | 3.12 IU/mL and 15600 IU/mg | 390 | neutralizing activity (RFFIT) [11]: 0.43 IU/mL and 2120 IU/mg; neutralizing activity (RFFIT), Titer [11]: 170; neutralizing activity (RFFIT) [12]: 1.04 IU/mL and 5180 IU/mg; neutralizing activity (RFFIT), Titer [12]: 280; neutralizing activity (RFFIT) [13]: 1 IU/mL and 5000 IU/mg; neutralizing activity (RFFIT), Titer [13]: 170; neutralizing activity (RFFIT) [14]: 2.16 IU/mL and 2160 IU/mg; neutralizing activity (RFFIT), Titer [14]: 270; neutralizing activity (RFFIT) [15]: 5.56 IU/mL and 27800 IU/mg; neutralizing activity (RFFIT), Titer [15]: 125; neutralizing activity (RFFIT) [16]: 6.67 IU/mL and 33300 IU/mg; neutralizing activity (RFFIT), Titer [16]: 180; neutralizing activity (RFFIT) [17]: 7.6 IU/mL and 7590 IU/mg; neutralizing activity (RFFIT), Titer [17]: 1100; neutralizing activity (RFFIT) [18]: 1.79 IU/mL and 8930 IU/mg; neutralizing activity (RFFIT), Titer [18]: 250; neutralizing activity (RFFIT) [19]: 3.11 IU/mL and 15600 IU/mg; neutralizing activity (RFFIT), Titer [19]: 280
antibody 1 (antibody, V domains shown) VH: VQLLQESGPGLAKPSETLSLICTVSGGSISRRRDYWGWIRQPPGRGLEWIGSFFHRGSTYYNPSLESRVSISVDPSKNQFSLHLSSVTVADTAVYYCARHPSTPFAEYLLLPDAFDSWGQGTLVTVSS VL: DIVMTQSPATLSVSPGERATLSCRASQSVRSSLAWYQQRPGQAPRLLISGASTRATDIPARLSGSGSGTEFTLTVSSLQSEDFAVYYCQQYSDWPLTFGGGTKVEIKR | 0.41 IU/mL and 2070 IU/mg | 56 | 0.56 IU/mL and 2800 IU/mg | 56 | 2.5 IU/mL and 2500 IU/mg | 250 | 0.4 IU/mL and 2000 IU/mg | 56 | 0.39 IU/mL and 1930 IU/mg | 54 | 0.4 IU/mL and 2000 IU/mg | 50 | 2.8 IU/mL and 2800 IU/mg | 56 | 0.52 IU/mL and 2620 IU/mg | 11 | 0.56 IU/mL and 2780 IU/mg | 10 | 1.16 IU/mL and 5800 IU/mg | 145 | neutralizing activity (RFFIT) [11]: 0.36 IU/mL and 1810 IU/mg; neutralizing activity (RFFIT), Titer [11]: 145; neutralizing activity (RFFIT) [12]: 0.28 IU/mL and 1390 IU/mg; neutralizing activity (RFFIT), Titer [12]: 75; neutralizing activity (RFFIT) [13]: 0.33 IU/mL and 1650 IU/mg; neutralizing activity (RFFIT), Titer [13]: 56; neutralizing activity (RFFIT) [14]: 2.24 IU/mL and 2240 IU/mg; neutralizing activity (RFFIT), Titer [14]: 280; neutralizing activity (RFFIT) [15]: 2.22 IU/mL and 11100 IU/mg; neutralizing activity (RFFIT), Titer [15]: 50; neutralizing activity (RFFIT) [16]: 1.85 IU/mL and 9260 IU/mg; neutralizing activity (RFFIT), Titer [16]: 50; neutralizing activity (RFFIT) [17]: 7.6 IU/mL and 7590 IU/mg; neutralizing activity (RFFIT), Titer [17]: 1100; neutralizing activity (RFFIT) [18]: 0.36 IU/mL and 1790 IU/mg; neutralizing activity (RFFIT), Titer [18]: 50; neutralizing activity (RFFIT) [19]: 0.6 IU/mL and 3000 IU/mg; neutralizing activity (RFFIT), Titer [19]: 54
